Literature values, collected in article PMC5067215.

Molecular target: CD74 (Homo sapiens) (UniProt P04233)
Chain of UniProt P04233 (P04233 73-296): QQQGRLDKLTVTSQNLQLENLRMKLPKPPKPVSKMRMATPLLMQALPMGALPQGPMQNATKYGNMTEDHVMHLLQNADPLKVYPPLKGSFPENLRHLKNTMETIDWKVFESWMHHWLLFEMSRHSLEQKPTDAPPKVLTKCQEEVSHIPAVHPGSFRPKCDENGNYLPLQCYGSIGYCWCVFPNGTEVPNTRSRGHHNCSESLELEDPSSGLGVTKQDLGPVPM

In the case of D-DT (from UniProt P30046), the Kd is given as 5.42 nM.
